molecular target: T1, GST-Dvl2PDZ fusion protein (human, UniProt O14641 248-364); experiment: phage display selection on GST-Dvl2PDZ
T1 construct: range 248-364; Made with the pGEX E. coli expression system; also called GST-PDZ fusion protein; not shown: glutathione S-transferase (GST) encoded by plasmid pGEX
T1 sequence (looked up): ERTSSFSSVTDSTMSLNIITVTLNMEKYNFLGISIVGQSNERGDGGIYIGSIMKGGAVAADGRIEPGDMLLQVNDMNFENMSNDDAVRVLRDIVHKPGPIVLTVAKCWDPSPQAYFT
Protocol: The libraries were cycled through rounds of binding selection with a GST-Dvl2PDZ fusion protein coated on 96-well Maxisorp immunoplates as the capture target. Phage were propagated in E. coli XL1-blue with M13-KO7 helper phage and 10 μM IPTG. After four rounds of binding selection, individual phage clones were analyzed in a high-throughput phage ELISA, and positive clones were subjected to DNA sequence analysis.
We used decapeptide libraries fused to the C-terminus or N-terminus of the phage coat protein. The library contained NNK degenerate codons that encoded all 20 natural amino acids. The possible occurrence of amber stop codons in the degenerate codon also provided for the display of shorter peptides for the C-terminal library. Each library was cycled through four rounds of binding selection with immobilized GST-Dvl2PDZ fusion protein as the capture target.

| Binder | binding result |
| --- | --- |
| TWIDGPYLLQ [SEQ ID NO 147] | binds |
| NEQLLWTDIP [SEQ ID NO 118] | binds |
| YTKYYGWIDTGG [SEQ ID NO 86] | binds |
| SMVLWWDVPS [SEQ ID NO 124] | binds |
| HITVDYGWIDGGG [SEQ ID NO 114] | binds |
| EVLWSDFPPM [SEQ ID NO 141] | binds |
| EMITLWSDLP [SEQ ID NO 138] | binds |
| VSLINYGWIDGGG [SEQ ID NO 107] | binds |
| FTWRDYGWLDGGG [SEQ ID NO 84] | binds |
| VSLINYGWIDGGG [SEQ ID NO 94] | binds |
| VWGDSFEGRP [SEQ ID NO 148] | binds |
| VKYYGYIDGGG [SEQ ID NO 113] | binds |
| MWYVDYGWVDGGG [SEQ ID NO 98] | binds |
| EMITLWSDLP [SEQ ID NO 129] | binds |
| AMFHEYGWIDGGG [SEQ ID NO 110] | binds |
| NLERWSDIPM [SEQ ID NO 145] | binds |
| EMDLLWTDIP [SEQ ID NO 132] | binds |
| SHWKYYGWIDGGG [SEQ ID NO 101] | binds |
| VKYYGYIDGGG [SEQ ID NO 82] | binds |
| PEVWIDGPEI [SEQ ID NO 149] | binds |
| SIVLWSDIPS [SEQ ID NO 135] | binds |
| QSHTCYGWIDGGG [SEQ ID NO 81] | binds |
| EVLWSDFPPM [SEQ ID NO 119] | binds |

| Binder | binding result |
| --- | --- |
| EVLWADFPPM [SEQ ID NO 122] | binds |
| VNLVEYGWVDGGG [SEQ ID NO 116] | binds |
| WVEYGWIDSGG [SEQ ID NO 83] | binds |
| YTKYYGWIDTGG [SEQ ID NO 104] | binds |
| QLVELWSDIP [SEQ ID NO 136] | binds |
| ELWIDGPHVM [SEQ ID NO 134] | binds |
| TLLHFYGYIDGGG [SEQ ID NO 85] | binds |
| IKLVQYGWIDGGG [SEQ ID NO 108] | binds |
| IKLVQYGWIDGGG [SEQ ID NO 111] | binds |
| GLVLLWTDIP [SEQ ID NO 143] | binds |
| ITDYGWVDGPG [SEQ ID NO 97] | binds |
| GLVLLWDDFP [SEQ ID NO 130] | binds |
| SIVLWSDIPS [SEQ ID NO 121] | binds |
| SIVLWTDIPS [SEQ ID NO 123] | binds |
| LKFYGWIDGGG [SEQ ID NO 92] | binds |
| SIVLWSDIPS [SEQ ID NO 140] | binds |
| SWETLWSDFP [SEQ ID NO 117] | binds |
| AWIVDYGWIDGGG [SEQ ID NO 102] | binds |
| AWIVDYGWIDGGG [SEQ ID NO 89] | binds |
| SLQWYGWIDSGG [SEQ ID NO 93] | binds |
| SHWKYYGWIDGGG [SEQ ID NO 96] | binds |
| YTDYGWIDQSG [SEQ ID NO 103] | binds |
| LQLLWSDIPG [SEQ ID NO 131] | binds |

| Binder | binding result |
| --- | --- |
| GGRMALGWLDGGG [SEQ ID NO 88] | binds |
| TWMDYGWLDQGG [SEQ ID NO 87] | binds |
| QQLLWSDIP [SEQ ID NO 120] | binds |
| RRMLWSDIPG [SEQ ID NO 142] | binds |
| EVLWSDFPPM [SEQ ID NO 128] | binds |
| WVMLWSDLPA [SEQ ID NO 137] | binds |
| MVDYGWIDYWG [SEQ ID NO 112] | binds |
| GFLTHYGWLDGGG [SEQ ID NO 109] | binds |
| SIIYYGWLDGGG [SEQ ID NO 99] | binds |
| WWVDYGFVDGGG [SEQ ID NO 105] | binds |
| LKFYGWIDGGG [SEQ ID NO 106] | binds |
| TNLLWSDIPP [SEQ ID NO 125] | binds |
| SIVLWSDIPS [SEQ ID NO 127] | binds |
| LTMYGWIDGKG [SEQ ID NO 115] | binds |
| WVMLWSDLPA [SEQ ID NO 139] | binds |
| TRFTNYGWLDGGG [SEQ ID NO 91] | binds |
| AHTTFYGWIDGGG [SEQ ID NO 100] | binds |
| TDYGWIDYPP [SEQ ID NO 90] | binds |
| SLLTIWSDIP [SEQ ID NO 146] | binds |
| WTNVLWTDIP [SEQ ID NO 133] | binds |
| WISGWIDYPP [SEQ ID NO 95] | binds |
| EMDLLWTDIP [SEQ ID NO 144] | binds |

Source: US20100136580A1 (Genentech, published 2010)
